The source of these data is publication PMC8607333, “Real-time kinetic studies of Mycobacterium tuberculosis LexA–DNA interaction” (Bioscience Reports, 2021).

Series [1] has as its target T1, LexAΔ18aa (Mycobacterium tuberculosis, UniProt P9WHR7 1-236, del94-111).
T1 sequence: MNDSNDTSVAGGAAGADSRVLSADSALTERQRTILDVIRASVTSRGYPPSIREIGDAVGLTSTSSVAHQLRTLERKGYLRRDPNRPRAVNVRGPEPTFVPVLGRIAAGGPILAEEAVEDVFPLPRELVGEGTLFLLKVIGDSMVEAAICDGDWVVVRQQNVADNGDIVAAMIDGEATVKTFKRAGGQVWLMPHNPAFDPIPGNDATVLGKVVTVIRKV
In words: BLI; pH 7.5; BLI: 10 mM HEPES pH 7.5, 50 mM NaCl, 25 C (pH 4 buffer not stated), 1:1 global fit; EMSA: 10 mM HEPES pH 7.5, 50 mM NaCl, 30 min on ice, 3.5 nM DNA. The note with it: protein: recombinant; tags: 6xHis; chain copies: 2; label: 5' biotin on strand 1; blunt.

The target of series [2] is T2, LexAΔ24aa (Mycobacterium tuberculosis, UniProt P9WHR7 25-236, del1-24).
T2 sequence: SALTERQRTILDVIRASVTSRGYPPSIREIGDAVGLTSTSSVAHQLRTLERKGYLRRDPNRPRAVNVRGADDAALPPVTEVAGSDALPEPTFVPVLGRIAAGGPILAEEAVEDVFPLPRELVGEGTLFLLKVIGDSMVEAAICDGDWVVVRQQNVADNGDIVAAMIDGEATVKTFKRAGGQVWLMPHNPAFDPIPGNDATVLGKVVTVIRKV
The series is described as above. The following applies: protein: recombinant; tags: N-term 6xHis (pET28a); chain copies: 2; label: 5' biotin on strand 1; blunt.

The target in series [3] is T3, LexA WT (Mycobacterium tuberculosis, UniProt P9WHR7 1-236).
T3 sequence: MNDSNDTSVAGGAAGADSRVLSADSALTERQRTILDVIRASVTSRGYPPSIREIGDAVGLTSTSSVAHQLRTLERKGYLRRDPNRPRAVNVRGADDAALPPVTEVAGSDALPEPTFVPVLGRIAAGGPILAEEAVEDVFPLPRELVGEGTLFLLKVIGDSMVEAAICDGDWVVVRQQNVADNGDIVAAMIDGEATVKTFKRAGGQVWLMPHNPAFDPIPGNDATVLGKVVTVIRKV
The series can be described thus: BLI; pH 7.5; BLI: 10 mM HEPES pH 7.5, 50 mM NaCl, 25 C (pH 4 buffer not stated), 1:1 global fit; […]. The note with it: protein: recombinant; tags: N-term 6xHis (pET28a); chain copies: 2; label: 5' biotin on strand 1; blunt. On the technique in general: Biolayer interferometry detects binding as a change in optical thickness at a sensor tip.

In series [4] the target is T1, LexAΔ18aa. The series can be described thus: EMSA; 128 nM protein; BLI: 10 mM HEPES pH 7.5, 50 mM NaCl, 25 C (pH 4 buffer not stated), 1:1 global fit; EMSA: 10 mM HEPES pH 7.5, 50 mM NaCl, 30 min on ice, 3.5 nM DNA. The note with it: protein: recombinant; tags: 6xHis; chain copies: 2; label: 32P end label, no biotin; blunt.

B1: rv3074_44mer SOS box, biotinylated (dsDNA)
DNA 1: GCAGGCTGCTATTCTCGAACACATGTTCGAGACATTGACCGCGA
DNA 2: TCGCGGTCAATGTCTCGAACATGTGTTCGAGAATAGCAGCCTGC
Broadly, the Kd is the constant that tells how readily two partners part at equilibrium. With B1, the equilibrium dissociation constant (Kd) worked out at 43.5 ± 0.24 nM in series [1], 2.75 ± 0.04 nM in series [2] and 3.86 ± 0.03 nM in series [3].

B2: dnaE2_44mer SOS box, biotinylated (dsDNA)
DNA 1: ACAACTGCGCTGTATCGAACAATTGTTCGATATACTGTGGAATG
DNA 2: CATTCCACAGTATATCGAACAATTGTTCGATACAGCGCAGTTGT
Regarding B2, the results for the equilibrium dissociation constant (Kd) in series [2] and in series [3] were 4.94 ± 0.03 nM and 2.16 ± 0.01 nM, respectively.

B3: dnaE2 44mer SOS box, 32P end-labeled (dsDNA)
DNA 1: B2 DNA 1
DNA 2: B2 DNA 2
Regarding B3, in series [4], the binding result is on record as “binds”.

B4: recA_44mer SOS box, biotinylated (dsDNA)
DNA 1: GTGTCACACTTGAATCGAACAGGTGTTCGGCTACTGTGGTGATC
DNA 2: GATCACCACAGTAGCCGAACACCTGTTCGATTCAAGTGTGACAC
For the molecule B4, the Kd in series [1] stood at 32.55 ± 0.22 nM; in series [2] it was 1.67 ± 0.02 nM; in series [3] it was 3.63 ± 0.02 nM.

B5: lexA_44mer SOS box, biotinylated (dsDNA)
DNA 1: CCGGAACACGCCTGTCGAACACATGTTTGATTCTTGGTGCGAAT
DNA 2: ATTCGCACCAAGAATCAAACATGTGTTCGACAGGCGTGTTCCGG
B5: the values for the Kd in series [1], in series [2] and in series [3] were 34.53 ± 0.25 nM, 2.36 ± 0.02 nM and 0.98 ± 0.01 nM, respectively.
